Tests used:
[1] = target: Acidovorax facilis CCTCC NO: M 209044 nitrilase AcN-F168V (SEQ ID No. 2) mutant G180D/A205C, SEQ ID No. 10 (Acidovorax facilis, UniProt Q1W2L4); experiment: Kinetic parameters of the nitrilase double mutant G180D/A205C; assay type: biochemical; settings: pH 7.0, 20 mM phosphate buffer, 45° C.
Method: (§1) The kinetic parameters of the purified protein in example 3 were determined, using 1-cyanocyclohexylacetonitrile as the substrate and the pure enzyme solutions of AcN-F168V, G180D, A205C, G180F, and G180D/A205C as the catalyst.
(§2) 10 mL of the reaction system was as follows: the purified enzyme solution (165 U/g) was diluted 10 times with a pH 7.0, 20 mM phosphate buffer and the final concentration of the purified nitrilase was 0.2 mg/mL. The resulting enzyme solution was put into a reaction container, added with the substrate at final concentrations of 6.75-40.49 mM (6.75, 13.50, 20.24, 26.99, 33.74 and 40.49 mM, respectively) and added with a pH 7.0, 20 mM phosphate buffer as the reaction medium up to 10 mL, the reaction solution was reacted at 45° C. and 600 rpm for 5 min, 500 μL of the sample was taken out, 500 μL of 2 M HCl was added to terminate the reaction, and the concentration of 1-cyanocyclohexyl acetic acid in the reaction solution was determined by HPLC (The detection and analysis conditions are the same as that in example 4).
(§3) Collected test data was used to conduct nonlinear fitting by Origin, thereby obtaining the Km value and Kcat value of the nitrilase E. coli BL21 (DE3)/pET-28b (+)-AcN-F168V and its combinatorial mutants E. coli BL21 (DE3)/pET-28b (+)-AcN-G180D, E. coli BL21 (DE3)/pET-28b (+)-AcN-G180F, E. coli BL21 (DE3)/pET-28b (+)-AcN-A205C and E. coli BL21 (DE3)/pET-28b (+)-AcN-G180D/A205C as shown in table 2.

N#CCC1(C#N)CCCCC1 [2] = experiment: Kinetic parameters of the nitrilase mutant A205C; assay type: biochemical, Acidovorax facilis CCTCC NO: M 209044; settings: other: A205C, pH 7.0, 20 mM phosphate buffer, 45° C., 6.75-40.49 mM substrate
Method: as §1, §2, §3

N#CCC1(C#N)CCCCC1 [3] = experiment: Kinetic parameters of the nitrilase mutant G180D; assay type: biochemical, Acidovorax facilis CCTCC NO: M 209044; settings: other: G180D, pH 7.0, 20 mM phosphate buffer, 45° C., 6.75-40.49 mM substrate
Method: as §1, §2, §3

N#CCC1(C#N)CCCCC1 [4] = experiment: Kinetic parameters of the nitrilase mutant G180F; assay type: biochemical, Acidovorax facilis CCTCC NO: M 209044; settings: other: G180F, pH 7.0, 20 mM phosphate buffer, 45° C., 6.75-40.49 mM substrate
Method: as §1, §2, §3

N#CCC1(C#N)CCCCC1 [5] = experiment: Kinetic parameters of the nitrilase, purified AcN-F168V (parent); assay type: biochemical, Acidovorax facilis CCTCC NO: M 209044; settings: other: AcN-F168V, pH 7.0, 20 mM phosphate buffer, 45° C., 6.75-40.49 mM substrate
Method: as §1, §2, §3

## N#CCC1(C#N)CCCCC1 [1-cyanocyclohexylacetonitrile]
[1]
  Kcat: 24139 s⁻¹
  Kcat/Km: 341.236 M⁻¹ s⁻¹
  Vmax: 4.78 ± 0.73 mmolmg^−1min^−1
[1]; 6.75-40.49 mM substrate
  Km: 19.7 ± 7.4 mM

## Acidovorax facilis CCTCC NO: M 209044 nitrilase AcN-F168V (SEQ ID No. 2) mutant A205C, SEQ ID No. 8 (Acidovorax facilis; A205C/F168V)
N#CCC1(C#N)CCCCC1 [2]
  Km: 3.40 ± 0.78 mM
  Vmax: 1630 µmol/min/mg
  kcat: 8317 s⁻¹

## Acidovorax facilis CCTCC NO: M 209044 nitrilase AcN-F168V (SEQ ID No. 2) mutant G180D, SEQ ID No. 4 (Acidovorax facilis; F168V/G180D)
N#CCC1(C#N)CCCCC1 [3]
  Km: 3.21 ± 1.41 mM
  Vmax: 1980 µmol/min/mg
  kcat: 6624 s⁻¹

## Acidovorax facilis CCTCC NO: M 209044 nitrilase AcN-F168V (SEQ ID No. 2) mutant G180F, SEQ ID No. 6 (Acidovorax facilis; F168V/G180F)
N#CCC1(C#N)CCCCC1 [4]
  Km: 5.88 ± 1.58 mM
  Vmax: 2350 µmol/min/mg
  kcat: 7612 s⁻¹

## Acidovorax facilis CCTCC NO: M 209044 nitrilase AcN-F168V, SEQ ID No. 2 (Acidovorax facilis; F168V)
N#CCC1(C#N)CCCCC1 [5]
  Km: 16.25 ± 5.37 mM
  Vmax: 1530 µmol/min/mg
  kcat: 5573 s⁻¹
